Data set [1] concerns NC(=O)c1ccc[n+]([C@@H]2O[C@H](COP(=O)(O)OP(=O)(O)OC[C@H]3O[C@@H](n4cnc5c(N)ncnc54)[C@H](OP(=O)(O)O)[C@@H]3O)[C@@H](O)[C@H]2O)c1. Kind of data set: purified protein. To be noted: pH 7.5; 25.0 °C; varied: cofactor.
Data set [2] concerns O=C(O)CC(C(=O)O)C(O)C(=O)O. As to the kind of experiment: purified protein. Particulars: pH 7.5; 25.0 °C.
In another data set the target is M. tb ICD-2 (Mycobacterium tuberculosis, UniProt O53611). As to the kind of experiment: biochemical.

The values below come from publication PMC1260013 (BMC Biochemistry, 2005).

Sequence of M. tb ICD-2 (O53611 whole entry): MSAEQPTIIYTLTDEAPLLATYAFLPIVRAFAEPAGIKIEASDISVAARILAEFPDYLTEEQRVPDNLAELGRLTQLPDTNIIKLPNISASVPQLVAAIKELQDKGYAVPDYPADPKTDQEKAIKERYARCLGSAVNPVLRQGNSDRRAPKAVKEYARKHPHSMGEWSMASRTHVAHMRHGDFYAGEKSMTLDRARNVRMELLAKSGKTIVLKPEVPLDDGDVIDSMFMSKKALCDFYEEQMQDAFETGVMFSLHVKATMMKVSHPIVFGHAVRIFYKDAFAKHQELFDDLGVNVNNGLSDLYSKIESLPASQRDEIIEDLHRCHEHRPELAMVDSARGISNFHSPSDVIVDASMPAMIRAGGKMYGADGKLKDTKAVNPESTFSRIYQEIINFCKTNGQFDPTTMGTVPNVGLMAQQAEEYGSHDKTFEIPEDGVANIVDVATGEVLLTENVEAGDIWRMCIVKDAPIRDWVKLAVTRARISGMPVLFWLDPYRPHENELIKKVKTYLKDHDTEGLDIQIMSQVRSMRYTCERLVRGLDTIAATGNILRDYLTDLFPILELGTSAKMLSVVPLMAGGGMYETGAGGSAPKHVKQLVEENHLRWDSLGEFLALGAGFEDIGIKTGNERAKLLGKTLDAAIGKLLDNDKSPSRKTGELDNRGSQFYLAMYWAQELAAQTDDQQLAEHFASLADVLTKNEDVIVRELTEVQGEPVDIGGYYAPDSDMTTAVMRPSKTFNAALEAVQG

As to “M. tb ICD-1 (Mycobacterium tuberculosis H37Rv)”, the Km – broadly, the concentration of substrate that gives half-maximal velocity – in data set [1] is 125 ± 5 µM; in data set [2] it was 10 ± 5 µM. In addition, the Vmax in data set [1] turned out to be 400 μM NADPH/min; in data set [2], 380 μM NADPH/min.
For the compound `NC(=O)C1=CN([C@@H]2O[C@H](COP(=O)(O)OP(=O)(O)OC[C@H]3O[C@@H](n4cnc5c(N)ncnc54)[C@H](OP(=O)(O)O)[C@@H]3O)[C@@H](O)[C@H]2O)C=CC1` [NADPH], the Ki (usually the dissociation constant of the complex between target and ligand, obtained from inhibition or displacement) on M. tb ICD-2 worked out at 4.6 µM.
